Assay results taken from the supplement of paper PMC10567573.
± gives the standard deviation.

Assay: protein stability index of a GFP-peptide fusion (GPS, HEK-293T) (PSI 1-6); higher = more stable
[1] = treatment: DMSO, c terminus: a fixed tail appended
[2] = treatment: MLN4924 1 uM, 8 h, c terminus: a fixed tail appended
[3] = treatment: DMSO, c terminus: native
[4] = treatment: MLN4924 1 uM, 8 h, c terminus: native
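Further: 24-mer peptide tiles fused after GFP, lentivirally expressed, FACS-sorted into six equal bins by GFP/DsRed ratio, decoded by Illumina sequencing, PSI is the read-weighted mean bin number.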

Sequence	protein stability index [1]	protein stability index [2]	protein stability index [3]	protein stability index [4]
PPHRRRLLFACSPPPASQPVVKAL [CDC25A]	2.64 ± 0.22	2.98 ± 0.1		
MEEDKLLSAVPEEGDATRDPGPEP [PSD2]	5.54 ± 0.1	5.52 ± 0.16		
EDTKPKPTKRKRKGSSAVGSDSD [INTS3]			5.45 ± 0.25	5.4 ± 0.33
SCTTRLCQEEQLRSHENKLRQLTA [PSD2]	3.6 ± 0.22	3.79 ± 0.33		
VNADIEKVNQNQAKRCTVIGGSGF [NSDHL]	3.79 ± 0.2	3.87 ± 0.19		
LQDQEKAWGFPENATAPRSPSHSP [ELOA2]	5.38 ± 0.26	5.4 ± 0.26		
LPEKPVKLASHTRDTTGVSQMFPS [FBF1]	3.97 ± 0.13	3.99 ± 0.47		
ADEDDDRDVALQIHFTLIQAFCCE [GADD45A]	2.28 ± 0.35	2.36 ± 0.085		
PIRSRRALPPLRTRSKSDPVLHPS [FAM189A2]	4.9 ± 0.17	4.94 ± 0.16		
EIEQLLARLTGVNDKMAEYTNSAG [GOSR1]	2.29 ± 0.24	2.46 ± 0.45		
KDAALATALGDKKSLEGDLEDLKD [LMNB1]	5.42 ± 0.36	5.89 ± 0.14		
IFSVTALDPDSKENAQIIYSLAED [PCDHGA10]	3.1 ± 0.47	3.21 ± 0.19		
LPSRPPPLLSPLLASRNPCPWHYL [RSPH3]	2.27 ± 0.2	2.15 ± 0.22		
VLEMFDLRMMVENIMNKEAFMNQE [RHOBTB1]	2.47 ± 0.45	2.33 ± 0.26		
AIPYLEHIIHVWEETGSRFHNCLI [VPS39]	2.31 ± 0.4	2.36 ± 0.54		
AAPWPMAFPYQYPPPPHPYNPHPG [DVL3]	2.62 ± 0.26	2.85 ± 0.21		
HPVNPPYYIPLVELVPHPETAPTT [CRYL1]	3.51 ± 0.33	3.51 ± 0.22		
EESTPGQTNSETAVVALTQDQPSE [HDAC6]	5.49 ± 0.22	5.59 ± 0.34		
PPHREGEAAGGDHETESTSDKETD [CDS1]	5.67 ± 0.31	5.58 ± 0.57		
PDKESMYYPRVQHYRELLDSLPMD [GDAP1]	3.38 ± 0.23	3.48 ± 0.35		
RSNTLRERSQVRGSAPPRATPGGG [PCDHGC5]	4.68 ± 0.17	4.47 ± 0.28		
SKAPGSCDPGTDPCPEDASTPRPP [TLE6]	5.59 ± 0.28	5.45 ± 0.081		
SFTTNEKAILEQNFRDLVRDLEKQ [TRIM29]	3.97 ± 0.19	4.19 ± 0.2		

Sequence	protein stability index [1]	protein stability index [2]	protein stability index [3]	protein stability index [4]
EAAGVVVEEELFHQQGTPRASNRS [LMNB1]	5.31 ± 0.41	5.47 ± 0.14		
VCTFTYLLVGAAVFDALESDHEMR [KCNK9]	2.9 ± 0.7	2.85 ± 0.15		
MEAYLPKKNGLYLSLVLGNVNVTL [TMEM120A]	3.28 ± 0.49	3.44 ± 0.35		
EKERRKKQQWEIMHKHNETSQKIA [RSPH3]	4.44 ± 0.42	4.91 ± 0.26		
PYKWVVEAANLLIPAVGSSLSEAL [MYBL2]	2.88 ± 0.32	2.63 ± 0.67		
AEQEALTGECKELEKKNEALKERA [ATF4]	5.3 ± 0.28	5.28 ± 0.27		
QPKEPQLTCDSAQKCHSIGETDEV [ZSCAN9]	5.43 ± 0.22	5.57 ± 0.21		
LRIFVWLLLLYFMQVIAIVLYLMM [PHTF1]	2.99 ± 0.71	2.75 ± 0.55		
SDLFSLAEEYEDSSTKPPKSRRKA [INTS3]	5.15 ± 0.34	5.33 ± 0.36		
MADPWQECMDYAVTLARQAGEVVC [IMPA1]	2.56 ± 0.44	2.37 ± 0.21		
PPQLRPGAPTSLQTEPQDRSPAPM [BCL2L11]		5.18 ± 0.077		
PGPGSGPGSGPGHGSGSHPGPASG [SPAG8]	5.08 ± 0.3	4.97 ± 0.26		
LLEPEEGGRAYQALHCPTGTEYTC [TRIB3]	3.8 ± 0.31	4.1 ± 0.23		
ERAKREMVMYSITVAFWLLNSWLW [MFF]	2.48 ± 0.48	1.87 ± 0.39		
LCKSVLEIERAIKQTQCPADPLQL [FEM1C]	3.17 ± 0.13	3.11 ± 0.26		
VSFEDPEFKSSFSQSFSLYVKYQV [ATE1]	2.99 ± 0.81	2.51 ± 0.61		
TAHASAQSLAGGSRRTKEEELQC [TPD52L1]			4.99 ± 0.1	4.88 ± 0.17
SLRSIEQKYKLFQQQQLTFTAALE [SPACA9]	2.6 ± 0.34	2.73 ± 0.35		
TNDRTASQGQWGRAWEVDWFSLAS [DHCR7]	2.61 ± 0.56	2.68 ± 0.33		
GGQESSGLNLGKKISVPRDVMLEE [MYOZ1]	5.07 ± 0.27	5.1 ± 0.23		
PGSQTAVKNSNRYDVEMTDELVGL [FBXO34]	4.98 ± 0.12	4.93 ± 0.27		
TPAFMFRLDASTSHQNLRVDDLSV [FSD1]	2.9 ± 0.28	3.07 ± 0.31		
